Experiments:
Experiment in all cases: cell-based or functional assay
[1] = target: HIV-1 Env of 0260.v5.c36 (HIV-1)
[2] = target: HIV-1 Env of 191821.E6.1 (HIV-1)
[3] = target: HIV-1 Env of 3016.V5.c36 (HIV-1)
[4] = target: HIV-1 Env of 6405.v4.c34 (HIV-1)
[5] = target: HIV-1 Env of 6535.3 (HIV-1)
[6] = target: HIV-1 Env of 96ZM651.02 (HIV-1)
[7] = target: HIV-1 Env of AC10.29 (HIV-1)
[8] = target: HIV-1 Env of BG505.w6m (HIV-1)
[9] = target: HIV-1 Env of C1080.c3 (HIV-1)
[10] = target: HIV-1 Env of CAAN.A2 (HIV-1)
[11] = target: HIV-1 Env of CAP210.E8 (HIV-1)
[12] = target: HIV-1 Env of CAP244.D3 (HIV-1)
[13] = target: HIV-1 Env of CAP256.PI (HIV-1)
[14] = target: HIV-1 Env of CAP256.SU (HIV-1)
[15] = target: HIV-1 Env of CAP45.G3 (HIV-1)
[16] = target: HIV-1 Env of CM244.ec1 (HIV-1)
[17] = target: HIV-1 Env of CNE3 (HIV-1)
[18] = target: HIV-1 Env of DU156.12 (HIV-1)
[19] = target: HIV-1 Env of DU172.17 (HIV-1)
[20] = target: HIV-1 Env of DU422.01 (HIV-1)
[21] = target: HIV-1 Env of KER2008.12 (HIV-1)
[22] = target: HIV-1 Env of KER2018.11 (HIV-1)
[23] = target: HIV-1 Env of MB201 (HIV-1)
[24] = target: HIV-1 Env of MB539.2B7 (HIV-1)
[25] = target: HIV-1 Env of PVO.04 (HIV-1)
[26] = target: HIV-1 Env of Q168.a2 (HIV-1)
[27] = target: HIV-1 Env of Q23.17 (HIV-1)
[28] = target: HIV-1 Env of Q259.d2.17 (HIV-1)
[29] = target: HIV-1 Env of Q461.e2 (HIV-1)
[30] = target: HIV-1 Env of Q769.d22 (HIV-1)
[31] = target: HIV-1 Env of Q842.d12 (HIV-1)
[32] = target: HIV-1 Env of QH0692.42 (HIV-1)
[33] = target: HIV-1 Env of REJO.67 (HIV-1)
[34] = target: HIV-1 Env of RHPA.7 (HIV-1)
[35] = target: HIV-1 Env of RW020.2 (HIV-1)
[36] = target: HIV-1 Env of SC422.8 (HIV-1)
[37] = target: HIV-1 Env of TH976.17 (HIV-1)
[38] = target: HIV-1 Env of THRO.18 (HIV-1)
[39] = target: HIV-1 Env of TRJO.58 (HIV-1)
[40] = target: HIV-1 Env of TRO.11 (HIV-1)
[41] = target: HIV-1 Env of UG037.8 (HIV-1)
[42] = target: HIV-1 Env of WITO.33 (HIV-1)
[43] = target: HIV-1 Env of ZM109.4 (HIV-1)
[44] = target: HIV-1 Env of ZM135.10a (HIV-1)
[45] = target: HIV-1 Env of ZM197.7 (HIV-1)
[46] = target: HIV-1 Env of ZM214.15 (HIV-1)
[47] = target: HIV-1 Env of ZM233.6 (HIV-1)
[48] = target: HIV-1 Env of ZM249.1 (HIV-1)
[49] = target: HIV-1 Env of ZM53.12 (HIV-1)

CAP256-VRC26.17 (antibody)
IC50 [1]: > 50 µg/mL | IC50 [2]: 35.4 µg/mL | IC50 [3]: 0.011 µg/mL | IC50 [4]: > 50 µg/mL | IC50 [5]: > 50 µg/mL | IC50 [6]: > 50 µg/mL | IC50 [7]: > 50 µg/mL | IC50 [8]: 0.4 µg/mL | IC50 [9]: > 50 µg/mL | IC50 [10]: > 50 µg/mL | IC50 [11]: 0.006 µg/mL | IC50 [12]: > 50 µg/mL | IC50 [13]: > 50 µg/mL | IC50 [14]: 0.003 µg/mL | IC50 [15]: > 50 µg/mL | IC50 [16]: 0.14 µg/mL | IC50 [17]: > 50 µg/mL | IC50 [18]: 18.7 µg/mL | IC50 [19]: > 50 µg/mL | IC50 [20]: 0.51 µg/mL | IC50 [21]: > 50 µg/mL | IC50 [22]: 0.064 µg/mL | IC50 [23]: > 50 µg/mL | IC50 [24]: > 50 µg/mL | IC50 [25]: > 50 µg/mL | IC50 [26]: > 50 µg/mL | IC50 [27]: 6.42 µg/mL | IC50 [28]: 0.076 µg/mL | IC50 [29]: > 50 µg/mL | IC50 [30]: > 50 µg/mL | IC50 [31]: > 50 µg/mL | IC50 [32]: > 50 µg/mL | IC50 [33]: > 50 µg/mL | IC50 [34]: > 50 µg/mL | IC50 [35]: > 50 µg/mL | IC50 [36]: > 50 µg/mL | IC50 [37]: > 50 µg/mL | IC50 [38]: > 50 µg/mL | IC50 [39]: > 50 µg/mL | IC50 [40]: > 50 µg/mL | IC50 [41]: > 50 µg/mL | IC50 [42]: > 50 µg/mL | IC50 [43]: > 50 µg/mL | IC50 [44]: > 50 µg/mL | IC50 [45]: 2.2 µg/mL | IC50 [46]: > 50 µg/mL | IC50 [47]: 0.006 µg/mL | IC50 [48]: 1.23 µg/mL | IC50 [49]: 0.005 µg/mL

CAP256-VRC26.18 (antibody)
IC50 [1]: > 50 µg/mL | IC50 [2]: 10.4 µg/mL | IC50 [3]: 0.028 µg/mL | IC50 [4]: > 50 µg/mL | IC50 [5]: > 50 µg/mL | IC50 [6]: > 50 µg/mL | IC50 [7]: > 50 µg/mL | IC50 [8]: 1.9 µg/mL | IC50 [9]: 2.15 µg/mL | IC50 [10]: > 50 µg/mL | IC50 [11]: 0.019 µg/mL | IC50 [12]: > 50 µg/mL | IC50 [13]: > 50 µg/mL | IC50 [14]: 0.008 µg/mL | IC50 [15]: > 50 µg/mL | IC50 [16]: 1.42 µg/mL | IC50 [17]: > 50 µg/mL | IC50 [18]: > 50 µg/mL | IC50 [19]: > 50 µg/mL | IC50 [20]: 5.4 µg/mL | IC50 [21]: > 50 µg/mL | IC50 [22]: 0.03 µg/mL | IC50 [23]: > 50 µg/mL | IC50 [24]: > 50 µg/mL | IC50 [25]: > 50 µg/mL | IC50 [26]: > 50 µg/mL | IC50 [27]: 35 µg/mL | IC50 [28]: 5.31 µg/mL | IC50 [29]: > 50 µg/mL | IC50 [30]: > 50 µg/mL | IC50 [31]: > 50 µg/mL | IC50 [32]: > 50 µg/mL | IC50 [33]: > 50 µg/mL | IC50 [34]: > 50 µg/mL | IC50 [35]: > 50 µg/mL | IC50 [36]: > 50 µg/mL | IC50 [37]: > 50 µg/mL | IC50 [38]: > 50 µg/mL | IC50 [39]: > 50 µg/mL | IC50 [40]: > 50 µg/mL | IC50 [41]: > 50 µg/mL | IC50 [42]: > 50 µg/mL | IC50 [43]: > 50 µg/mL | IC50 [44]: > 50 µg/mL | IC50 [45]: 1.89 µg/mL | IC50 [46]: > 50 µg/mL | IC50 [47]: 0.037 µg/mL | IC50 [48]: > 50 µg/mL | IC50 [49]: 0.01 µg/mL

CAP256-VRC26.19 (antibody)
IC50 [1]: > 50 µg/mL | IC50 [2]: 29.2 µg/mL | IC50 [3]: 0.039 µg/mL | IC50 [4]: > 50 µg/mL | IC50 [5]: > 50 µg/mL | IC50 [6]: > 50 µg/mL | IC50 [7]: 2.98 µg/mL | IC50 [8]: 0.13 µg/mL | IC50 [9]: 14.5 µg/mL | IC50 [10]: > 50 µg/mL | IC50 [11]: 0.025 µg/mL | IC50 [12]: > 50 µg/mL | IC50 [13]: > 50 µg/mL | IC50 [14]: 0.015 µg/mL | IC50 [15]: > 50 µg/mL | IC50 [16]: 0.024 µg/mL | IC50 (neutralization, TZM-bl) [17]: > 50 µg/mL | IC50 [18]: 1.34 µg/mL | IC50 [19]: > 50 µg/mL | IC50 [20]: 0.057 µg/mL | IC50 [21]: > 50 µg/mL | IC50 [22]: 0.005 µg/mL | IC50 [23]: > 50 µg/mL | IC50 [24]: 0.431 µg/mL | IC50 [25]: 1.1 µg/mL | IC50 [26]: 7.04 µg/mL | IC50 [27]: 0.233 µg/mL | IC50 [28]: 2.16 µg/mL | IC50 [29]: 15.6 µg/mL | IC50 [30]: > 50 µg/mL | IC50 [31]: 0.16 µg/mL | IC50 [32]: > 50 µg/mL | IC50 [33]: > 50 µg/mL | IC50 [34]: > 50 µg/mL | IC50 [35]: > 50 µg/mL | IC50 [36]: > 50 µg/mL | IC50 (neutralization, TZM-bl) [37]: > 50 µg/mL | IC50 [38]: > 50 µg/mL | IC50 [39]: > 50 µg/mL | IC50 [40]: > 50 µg/mL | IC50 [41]: > 50 µg/mL | IC50 [42]: > 50 µg/mL | IC50 [43]: 2.82 µg/mL | IC50 [44]: > 50 µg/mL | IC50 [45]: 0.135 µg/mL | IC50 [46]: > 50 µg/mL | IC50 [47]: 0.009 µg/mL | IC50 [48]: 0.076 µg/mL | IC50 [49]: 0.02 µg/mL

— patent US20200199204A1
